The nanobody polyreactivity screen of Harvey et al. (2022)

Assay: yeast display, Sf9 membrane polyspecificity reagent, FACS + sequencing; frameworks hold sequencing errors
Method in brief: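 Using colony PCR, genes from sorted yeast display clones were amplified, then sequenced on MiSeq at 2 × 250 and filtered by CDR length. The clones had been stained with 10% biotinylated, detergent-solubilized Sf9 membrane reagent for 1 hour at 4 °C and sorted by FACS into low and high (top ~1%) gates on anti-HA and streptavidin fluorescence. Polyreactivity labels come from the gate of origin.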

Row | Sequence | polyreactivity (PSR sort gate)
1 | QVQLVESGGGLVQAGGSLRLSCAASGFTYVVYDMGWYRQAPGKERELLAVITNSGGSTYYADSVKGRFTISRDNAKNTVYLQMYSLKPEDTAVYYCATRTPVWVNTESDYWGQGTQVTVSS | low polyreactivity
2 | QVQLVESGGGLVQAGGSLRLSCAASGFTYYYYAMGWSRQAPGKVRELVAAITYSGGSTYYADSVKGRFTISRDNAKNTVYLLMNSLKPEDTAVYYCNAVVGRWFPFNLSDYWGQGTQVTVSS | low polyreactivity
3 | QVQLVESGGGLVQAGGSLRLSCAASGFVWNAMGWYRQAPGKERELVAAINWRGGSTNYADSVKGRFTISRDNAKNTVYLQMNSLKPEDTAVYYCAAYFFHYHFYQAAYDYWGQGTQVTVSS | low polyreactivity
4 | QVQLVESGGGLVQAGGSLRLSCAASGGICGYYAMGWYRQAPGKERELVAAISWTGGSTYYADSVKGRFTISRDNAKNTVYLQMNSLKPEDTAVYYCAASDSFGYDYWGQGTQVTVSS | high polyreactivity
5 | QVQLVESGGGLVQAGGSLRLSCAASGGIFAHYVMGWYRQAPGKERELVAAISASGGSTYYADSVKGRFTISRDNAKNTVYLQMNSLKPEDTAVYYCAAYYLAWYAYRYKTVGSAMDHWGQGTQVTVSS | low polyreactivity
6 | QVQLVESGGGLVQAGGSLRLSCAASGGIFAPYVMGWYRQAPGKERELVAGITWSGGSTYYADSVKGRFTISRDNAKITVYLQMNSLKPEDTAVYYCAAEWYYSVIWLYEYWGQVTQVTVSS | high polyreactivity
7 | QVQLVESGGGLVQAGGSLRLSCAASGGIFARNAMGWYRQAPGKVRELVAAISWSGGRTYYADSVKGRFTISRDNAKNTDYLQMNSLKPEDTAVYYSAADHDPWWAWEFDYWGQGTQVTVSS | low polyreactivity
8 | QVQLVESGGGLVQAGGSLRLSCAASGGIFDANAMGWYRQAPGKERELVAAISSGGITKYADSVKGRFTISRDNAKNTVYLQMNSLKPEDTAVYYCAASWYRYRFIRYDYWGQGTQVTVSS | high polyreactivity
9 | QVQLVESGGGLVQAGGSLRLSCAASGGIFDRYAMGWKRQAPGKERELVAVISGSVNTYADSVKGRFTISRDNAKNTGYLRMNSLKPEDTAVYYCATQFEGPSGFNYWGQGTQVTVSS | low polyreactivity
10 | QVQLVESGGGLVQAGGSLRLSCAASGGIFDSYALGWYRQAPGKERELVADITSGGSTNYADSVKGRFTISRDNAKNTVYLQMNSLKPEDTAVYYCARTVYGARSYDYWGQGTQVTVSS | low polyreactivity
11 | QVQLVESGGGLVQAGGSLRLSCAASGGIFDTYAMGWYRQAPGKERELVAAISANGGETYYADSVKGRFTISRDNAKTTVYLQMNSLKPEDTAVYYCAADGFLPILHPVPWSYYYPFGYWGQGTQVTVSS | low polyreactivity
12 | QVQLVESGGGLVQAGGSLRLSCAASGGIFDYNAMGWYRQAPGKERELVAAITNGGSTNYADSVKGRFTISRDNAKNSVYLQMNSLKPEDTAVYYCATGYFYDYWGQGTQVTVSS | low polyreactivity
13 | QVQLVESGGGLVQAGGSLRLSCAASGGIFERNDMGWYRQAPGKERELVAGISSVGSTNYADSVKGRFTISRDNAKNTVYLQMNSLKPEDTAVYYCAAGYSRAHDYWGQGTQVTVSS | low polyreactivity
14 | QVQLVESGGGLVQAGGSLRLSCAASGGIFFLYAMGWYRQAPGKERELVAAIRQDGGSTYYADSVKGRFTISRDNAKNTVYLQMNSLKPEDTAVYYCNAGYVKTGLEYYYWGQGTQVTVSS | low polyreactivity
15 | QVQLVESGGGLVQAGGSLRLSCAASGGIFGLYTMGWYRQAPGKERELVAAISKTGGSTYYADSVKGRFTISRDNAKHTVYLQMNSLKPEDTAVYYCAADGPYDDYEYWGQGTQVTVSS | high polyreactivity
16 | QVQLVESGGGLVQAGGSLRLSCAASGGIFGLYTMGWYRQAPGKERELVAGISKRGTRTRYADSVKGRFTISRDNAKNTVYLQMNSLKPEDTAVYYCNADYYVSKLDYWGQGTQVTVSS | high polyreactivity
17 | QVQLVESGGGLVQAGGSLRLSCAASGGIFGRYAMGWYRQAPGKERELVAAISKRGGSTYYADSVKGRFTISRDNAKNTVYLQMNSLKPEDTAVYYCNAKRSLFGRYGYWGQGTQVTVSS | high polyreactivity
18 | QVQLVESGGGLVQAGGSLRLSCAASGGIFGSYAMGWYRQAPGKERELVAAITSGGRTTYADSVKGRFTISRDNAKNTVYLQMNSLKPEDTAVYYCNAGRVFGNYFFRVYYYWGQGTQVTVSS | high polyreactivity
19 | QVQLVESGGGLVQAGGSLRLSCAASGGIFHGNTMGWYRQAPGKERELVAAISNSGGSTYYADSVKGRFTISRDNAKNTVYLQMNSLKPEDTAVYYCARVGYKLYQYKYDYWGQGTQVTVSS | low polyreactivity
20 | QVQLVESGGGLVQAGGSLRLSCAASGGIFKRYAMGWYRQAPGKERELVAAISGRGGGTYYADSVKGRFTISRDNATNTVYLQMTSLKPEDTAVYYCNARLSWSAFGYWGQGTQVTVSS | high polyreactivity
21 | QVQLVESGGGLVQAGGSLRLSCAASGGIFKWYDMGWYRQAPGKEREFVAAITWSGGSTYYADSVKGRFTISRDNAKNTVYLQMNSLKPEVTAVYYCNVDWYPRGPHTVVFYDVSPFDYWGQGTQVTVSS | high polyreactivity
22 | QVQLVESGGGLVQAGGSLRLSCAASGGIFLPNAMGWYRQAPGKERELVAAISTGGSTNYADSVKGRFTISRDTAKNTVYLQMNSLKPEDTAVYYCAATPYNYVGFSRGGDYWGQGTQVTVSS | low polyreactivity

Row | Sequence | polyreactivity (PSR sort gate)
23 | QVQLVESGGGLVQAGGSLRLSCAASGGIFLYYAMGWYSQAPGKVRELVAAISSRGGSTYYAHSVKGRYTISRDNAKNTVYLQMNSLKPEDTAVYYCAAESGYYRRTGIFYSWGQGTHVTVSS | high polyreactivity
24 | QVQLVESGGGLVQAGGSLRLSCAASGGIFPFYAMGWYRQAPGKERELVAAISSGGSTYYADSVKGRFTISRDNAKNTVYLQMNSLKPEDTAVYYCAKRISTRRYDYWGQGTQVTVSS | low polyreactivity
25 | QVQLVESGGGLVQAGGSLRLSCAASGGIFPGNTMGWYRLAPRKESELVAAISNGVSTNYADSVKGRFTISRDNAKNTVYLQMNSLKPEDTAVYYCAADWSWWDGEDYHFEYDYWGQGTQVTVSS | low polyreactivity
26 | QVQLVESGGGLVQAGGSLRLSCAASGGIFQPNAMGWYRQAPGKERELVASISSDGSTNYADSVKGRFTISRDNAKNTVYLQMTSLKPEDTAVYYCAAAVKRGYAQSFISDGYGYWGQGTQVTVSS | low polyreactivity
27 | QVQLVESGGGLVQAGGSLRLSCAASGGIFRGYAMGWYRQAPGKERELVAAITKRGGRTYYADSVKGRFTISRDNAKNTVYLQMNSLKPEDTAVYYCAADYYAAYHLPDQDYDYWGQGTQVTVSS | high polyreactivity
28 | QVQLVESGGGLVQAGGSLRLSCAASGGIFRGYTMGWYRQAPGKERELVAAISKGGGSTYYADSVKGRFTISRDIAKNTVYLQMNSLKPEDTAVYYCAARHVYPLLDYWGQGTQVTVSS | high polyreactivity
29 | QVQLVESGGGLVQAGGSLRLSCAASGGIFRLYGMGWYRQAPGKERELVAAIRQSGGRTYYADSVKGRFTISRDNAKNTVYLQMNSLKPEDTAVYYCAADLLYRSSGSARLDYDYWGQGTQVTVSS | low polyreactivity
30 | QVQLVESGGGLVQAGGSLRLSCAASGGIFRQYAMGWYRQAPGKERELVAAISYNTGSTYYADSVKWRFTISRDNAKNTVYLQMNSLKPEDTAVYYCAKDIVIPATYVEYDYWGKGTQVTVSS | low polyreactivity
31 | QVQLVESGGGLVQAGGSLRLSCAASGGIFRYAMGWYRQAPGKEREFVAAITTRGGSTYYADSVKGRFTISRDNAKNTVYLQMNSLKPEDTAVYYCAARPYSGRNKYDYWGQGTQVTVSS | high polyreactivity
32 | QVQLVESGGGLVQAGGSLRLSCAASGGIFRYNAMGWYRQAPGKERELVAAISYRGGSTYYADSVKGRFTISRDNAKNTVYLQMNSLKPEDTAVYYCAAVYYQDKRGDYWGQGTQVTVSS | high polyreactivity
33 | QVQLVESGGGLVQAGGSLRLSCAASGGIFRYYAMGWYRQAPGKERELVARISRRAGSTYYADSVKGRFTISRDNAKNTVYLQMNSLKPEDTAVYYCNKVGGTLGYDYWGQGTQVTVSS | high polyreactivity
34 | QVQLVESGGGLVQAGGSLRLSCAASGGIFSCKAMGWYRQAPGKERELVAAITTRGGSTYYADSVKGRFTISRDNAKNSVYLQMNSLKPEDTAVYYCAAEGYEEFNWGQGTQVTVSS | low polyreactivity
35 | QVQLVESGGGLVQAGGSLRLSCAASGGIFSSYAMGWYRQAPGKERELVADISWNGDSTYYADSVKGRFTISRDNAKNTVYLQMNSLKPEDTAVYYCNAQWYFTPGTPVDYWGQGTQLTVSS | low polyreactivity
36 | QVQLVESGGGLVQAGGSLRLSCAASGGIFSVYAMGLYRQAPGKERELVASITVSGGSTSYADSVKGRFTISRDNAKNTVYLQMNSLKPEDTAVYYCNTDFGQAHTLSWYEDMDYWGQGTQVTVSS | low polyreactivity
37 | QVQLVESGGGLVQAGGSLRLSCAASGGIFSVYGMGWYRQAPGKERELVAVIRRGGSTYYADSVKGRFTISRDNAKNTVYLQMNSLKPEDTAVYYCATDYPGYFVDGNYYWGQGTQVTVSS | low polyreactivity
38 | QVQLVESGGGLVQAGGSLRLSCAASGGIFSYYAMGWSRQSPGKEREFVAAIDWGGGSTYYADSVKGRFTISRDNAKNTLNLQMNSLKPEDTAVYYCAAEIYPIRWDDYDYWGQGTQVTVSS | low polyreactivity
39 | QVQLVESGGGLVQAGGSLRLSCAASGGIFSYYAMGWYIQAPGKERELVAAISGSGGRTYYADSVKGRFTLSRDNAKNTVYLQMNSLKPEDTAVYYCAAYPVNRVDYRYDYWGQGTQVTVSS | high polyreactivity
40 | QVQLVESGGGLVQAGGSLRLSCAASGGIFTAYPMGWSRQAPGKERELVATITRGGSTNYADSVKGRFTISRDNAKNTVYLQMNSLKPEDTAVYYCNARYSWRSKWWTEDDYWGQGTQVTVSS | high polyreactivity
41 | QVQLVESGGGLVQAGGSLRLSCAASGGIFTAYTIGWYRQAPGKERELVATITRGGSTNYADSVKGRFTISRDNAMNTVYLQMNSLKPEDTAVYYCNARVQRRGVQYYYWGHGTQVTVSS | high polyreactivity
42 | QVQLVESGGGLVQAGGSLRLSCAASGGIFTGYAMGRYRQAPGKERELVAAISSGGTTYYADSVKGRFTISRDNAKNTVDLQMNSLKPEDTAVYYCAAGFYLRAVWMDYWGQGSQVTVSS | high polyreactivity
43 | QVQLVESGGGLVQAGGSLRLSCAASGGIFTLYVRGWYRQAPGKERELVAAISRTGGSTYYADSVKGRFTISRDNAKNTVYLQMNSLKPEDTAVYFCAALYRGGTRYGGYDYWGQGTQVTVSS | low polyreactivity
